Measured values: US20060140983A1

Molecular target: MHC class I (HLA-ABC) on Me275 and Me290 melanoma cells
Test: cell-based or functional assay

inhibition of specific lysis (4 hour 51Cr release assay): > 60%
specific lysis with W6/32 mAb (4 hour 51Cr release assay, E:T ratio 15:1): 4 % lysis
Substance: purified mouse anti-human HLA-ABC mAb (clone W6/32, DAKO) (antibody)
